Biological target: HuR (Human antigen R, ELAVL1) (UniProt Q15717 Q15717:1-326)
Assay: SPR; localized SPR (LSPR) on gold nanoparticle arrays; sizable red shift on HuR addition; inhibitor CMLD-1 disrupted binding (10 nm leftward shift)
Details: tags: Novus Biologicals H00001994-P01; tethered by base pairing to thiolated ssDNA on gold nanoparticles
Protocol: Next a target RNA strand containing a DNA hybridizing region, which binds via base pair matching with the ssDNA on the nanoparticle, and a hairpin loop containing a HuR target binding site. The specific target RNA strand used (SEQ ID NO 7) contains a specific HuR binding motif, has the RNA sequence 5′-GCG-AAU-UGG-GCC-CGA-CGU-CGC-AUG-GCU-UUU-AUU-UAU-UUU-GCA-UGG-CCG-CGG-GAU-3′, and was from Integrated DNA Technologies (IDT). Last, the HuR protein is added and binds to its target site withing the RNA hairpin loop. The specific HuR protein used was a recombinant HuR protein from Novus Biologicals (product #:H00001994-P01). For each step of the assembly, sizable LSPR shifts were observed, confirming our ability to quantitatively measure the expected binding at each step (FIG. 11A-C).

Chain of HuR (Human antigen R, ELAVL1) (Q15717 whole entry, one chain of several): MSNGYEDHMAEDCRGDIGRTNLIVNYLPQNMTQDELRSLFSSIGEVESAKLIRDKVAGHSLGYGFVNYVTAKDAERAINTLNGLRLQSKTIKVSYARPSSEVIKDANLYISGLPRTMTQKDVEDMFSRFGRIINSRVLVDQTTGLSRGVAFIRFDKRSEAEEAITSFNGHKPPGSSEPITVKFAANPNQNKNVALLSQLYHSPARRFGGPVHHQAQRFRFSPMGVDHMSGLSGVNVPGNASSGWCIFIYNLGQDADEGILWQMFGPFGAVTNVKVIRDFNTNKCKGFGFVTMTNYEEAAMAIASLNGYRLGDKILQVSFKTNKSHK

B1: HuR target RNA with DNA-hybridizing region and hairpin loop (ssRNA)
RNA: GCGAAUUGGGCCCGACGUCGCAUGGCUUUUAUUUAUUUUGCAUGGCCGCGGGAU
  binding result: binds
